The source of these data is US5602102A, “Dipeptidyl peptidase-I inhibitors and uses thereof” (Board of Regents, The Univ. of TX System, priority 1992, dated 1997).

Where a SMILES comes first, the peptide text is derived from it. The star is where a group is joined. Cbz = O=C(OCc1ccccc1)*; CHN2 = [N-]=[N+]=C*

In experiment [1] the target is Ala-Ala-Val-Ala-pNA.
Experiment [2] concerns the target Ala-Ala-pNA.
The target in experiment [3] is Arg-Arg-βNA.
Experiment [4] deals with Asp-Ala-βNA.
The target in experiment [5] is CBZ-Arg-Arg-βNA.
Experiment [6] has as its target CBZ-Gly-Pro-Arg-AMC.
For experiment [7], the target named is CBZ-Val-Leu-Arg-MNA.
Experiment [8] deals with Gly-Arg-MNA.
The target of experiment [9] is Gly-Phe-AMC.
The target of experiment [10] is Gly-Phe-MNA.
The target of experiment [11] is Gly-Phe-pNA.
The target of experiment [12] is Gly-Phe-βNA.
Experiment [13] deals with Gly-Pro-MNA.
The target of experiment [14] is Gly-Pro-βNA.
Experiment [15] concerns the target Pro-Phe-Arg-AMC.
Experiment [16] has as its target Ser-Tyr-MNA.
Experiment [17] has as its target Ser-Tyr-βNA.
Experiment [18] has as its target Suc-Ala-Ala-Ala-pNA.
The target of experiment [19] is Suc-Ala-Ala-Pro-Phe-pNA.
In experiment [20] the target is human leukocyte elastase proenzyme (human) (UniProt P08246).
In experiment [21] the target is human granzyme A proenzyme (human) (UniProt P12544).
The target in experiment [22] is propeptide-bearing form of human cathepsin G (human) (UniProt P08311).
The target of experiment [23] is T1, BLT esterase (granzyme A) (Mus musculus, UniProt P11032).
T1 construct: endogenous in cells; host or cells: alloreactive murine CD8(+) T cells, whole cells or Percoll granule fractions
T1 sequence (P11032 29-260): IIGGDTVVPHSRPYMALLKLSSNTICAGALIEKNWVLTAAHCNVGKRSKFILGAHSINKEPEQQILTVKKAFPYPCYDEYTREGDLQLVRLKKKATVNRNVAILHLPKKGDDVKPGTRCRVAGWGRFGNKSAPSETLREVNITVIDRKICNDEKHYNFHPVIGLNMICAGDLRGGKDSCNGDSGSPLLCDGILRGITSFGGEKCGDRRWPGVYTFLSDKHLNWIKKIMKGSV
Briefly: BLT esterase activity in granule fractions of control CD8(+) CTL, in vitro incubation with inhibitor. The experiment is classed as biochemical, murine. As to conditions: in vitro incubation with 1 mM. The method, then:
193, Academic Press, New York).
Cells were incubated for 5 minutes on ice in hypotonic homogenization buffer (0.1× PBS salts, 1 mM MgCl2). The cells were disrupted with a glass pestle homogenizer and isotonic conditions restored by the addition of 10× PBS salts. The homogenates were cleared of cell debris and intact cells by centrifugation at 600 xg for 2 minutes. The soluble extracts were layered on discontinuous Percoll gradients (6 ml 39%, 6 ml 90% Percoll) and centrifuged .for one hour at 17,000 xg. The gradients were fractionated by removing 1 ml aliquots from the top.
Alloreactive CD8(+) T-cells were homogenized and fractionated on discontinuous Percoll gradients.

In experiment [24] the target is human dipeptidyl peptidase-I (Homo sapiens, UniProt P53634). Briefly: Effect of protease inhibitors on DPPI activity (purified enzyme). The class given is biochemical. Further details: Human DPPI is now established to constitute a 200,000 Da glycoprotein with 24,000 Da subunits; from tissue; host or cells: human cadaveric spleen. As to conditions: screening conditions pH 5.5. The method, then: Note. Purified human dipeptidyl peptidaseI (0.4 μg) was preincubated
with each of the inhibitors at the stated concentration for 15 min at
37° C.. Each sample was diluted 3fold with assay buffer containing
substrate and incubated for an additional 20 min.

Experiment [25] deals with NK cells (Yac-1 targets). Kind of experiment: NK function of spleen cells, specific lysis of Yac-1. As to conditions: spleen cells of saline injected mice treated with 250 μM Leu-Leu-Ome. The class given is in vivo, murine. An excerpt:
(§1) The Yac-1 represents a standard target for natural killer (NK) cells.

Experiment [26] concerns CTL precursors. Kind of experiment: MLC activated anti-H-2 specific CTL from spleen cells. The class given is in vivo, murine. As to conditions: spleen cells of saline injected mice treated with 250 μM Leu-Leu-Ome.
Excerpt: as §1
Unlike control cells, spleen cells in which DPPI activity was inhibited were resistant to any discernible toxic effects of Leu--Leu--OMe on NK function of the capacity to generate anti-H-2^d specific CTL.

For experiment [27], the system named is BLT esterase (granzyme A). Kind of experiment: BLT esterase activity in IL2 activated human PBL. The experiment is classed as cell-based. As to conditions: IL2 activated Leu--Leu--OMe treated PBL. The text has this:
The cells were then harvested, disrupted in a dounce homogenizer, the nuclei pelleted and residual intact cells removed by centrifugation and the granule fraction localized on discontinuous Percoll gradients. […] Thus, Leu--Leu--OMe sensitive, DPPI enriched cells are the source of BLT esterase in such IL2 activated cultures.

Experiment [28] has as its target DPPI (Homo sapiens, UniProt P53634). As to conditions: cited from earlier work.

Consider “human dipeptidyl peptidase-I (from UniProt P53634) (enzyme)”, for which the hydrolysis of synthetic peptide substrate by purified human DPPI (values at 100 µM and 500 µM substrate; value given is at 500 µM) came to 120 not printed in experiment [1]; 1000 not printed in [2]; 0 not printed in [3]; 1000 not printed in experiment [4]; 0 not printed in experiment [5]; 0 not printed in experiment [6]. Moreover, the hydrolysis of synthetic peptide substrate by purified human DPPI (values at 100 µM and 500 µM substrate; value given is at 500 µM) in [7] stood at 0 not printed; in experiment [8], 4750 not printed; in experiment [9], 6120 not printed; in experiment [10], 5750 not printed; in experiment [11] it was 380 not printed; in [12], 4380 not printed. Moreover, the hydrolysis of synthetic peptide substrate by purified human DPPI (values at 100 µM and 500 µM substrate; value given is at 500 µM) was determined as 0 not printed in experiment [13]; 0 not printed in experiment [14]; 0 not printed in experiment [15]; 1750 not printed in [16]; 2000 not printed in experiment [17]; 0 not printed in experiment [18]. In addition, the hydrolysis of synthetic peptide substrate by purified human DPPI (values at 100 µM and 500 µM substrate; value given is at 500 µM) in [19] is 0 not printed. In addition, the generation of elastase activity in U-937 cells with endogenous DPPI inhibited for 48 hours in experiment [20] worked out at 65 % decrease. In addition, the generation of granzyme A (BLT esterase) activity in human LAK cells with endogenous DPPI inhibited in [21] was < 90 % reduction. In experiment [22], the processing of newly synthesized cathepsin G to the active form in U-937 cells with endogenous DPPI inhibited (3H-Ile pulse-chase, aprotinin-agarose, radiosequencing) was < 10 % of control.
In the case of `O=S(=O)(F)Cc1ccccc1` [PMSF, phenylmethylsulfonylfluoride], the “BLT esterase activity in granule fractions inhibited” value in experiment [23] is > 95%. The “effect on DPPI activity (in words)” value in [24] is “no effect”.
In the case of `COC(=O)[C@H](CC(C)C)NC(=O)[C@@H](N)CC(C)C` [Leu--Leu--OMe], the “NK Function % Specific Lysis Yac-1” value in experiment [25] (20:1) and in experiment [25] (80:1) was < 1 % Specific Lysis throughout. The “MLC Activated Anti-H-2° Spec. CTL” value in experiment [26] (20:1) turned out to be 1; in experiment [26] (80:1), 3. The “BLT esterase activity” value in experiment [27] was “could not be detected”.
With `[N-]=[N+]=CC(=O)C(Cc1ccccc1)NC(=O)CNC(=O)C(Cc1ccccc1)NC(=O)OCc1ccccc1` (stereo not drawn) [Z--Phe--Gly--Phe--CHN2] (Cbz-Phe-Gly-Phe-CHN2; configuration not given here), the “less reactive with DPPI than Gly--Phe--CHN2” value in experiment [28] was 3 orders of magnitude.
